Laboratory results as given in paper PMC9098913, “In vitro reconstitution of Escherichia coli divisome activation” (Nature Communications, 2022).

Test: Membrane off-binding rate (koff) of FtsA from FRAP
Excerpt: We could also use the data from these bleaching experiments to quantify the membrane-binding kinetics and diffusion of membrane-bound proteins by analysing the change of the fluorescence profile during recovery.
Equimolar concentrations of Cy3- and Cy5-labelled FtsA, supplemented with 20% unlabelled FtsA were used to study FRET and FRAP. Five pre-bleach frames were acquired, followed by acceptor photobleaching of a rectangular ROI with 40% 641 nm laser power and a dwell size of 1 µs/pixel, 75% overlapping lines. The recovery of the signal or the increase in donor intensity were measured with either two frames or one frame per second.
Bleaching the acceptor dye leads to an increase in the donor intensity, which can be used to quantify the Foerster Resonance energy transfer (FRET)[48]. FRET efficiency was quantified with E%=Ipost/Ipost+Ipre⋅100 , where Ipost is the intensity of the […] and Ipre is the […]. […] To extract the contribution of both processes, we adjusted a routine recently published by Gerganova et al.[33]. In short, the code provides the contribution of both modes of recovery by analysing the shape of the fluorescence recovery profile. […] Contribution of diffusion leads to a change of the slope of the outer borders of the bleached region (S4h right). Thus, by measuring the change of the slope of the border recovery, diffusion and simple on/off binding can be distinguished. We developed “FRAPdiff”, a graphical user interface, which uses the original fit routine by David Rutkowski. It can be used directly on.tiff movies with annotated bleach regions as ImageJ ROIs. In addition, we added optional bleach correction, user selectable projection axis (x or y), and optional mirroring of the recovery profiles, if bleaching was not symmetric. The original fit routine for estimating the recovery and diffusion dynamics can be found at https://github.com/davidmrutkowski/1DReflectingDiffusion. FRAPdiff is available at 10.5281/zenodo.6400639[49] under the GPLv3 open-source license.

B1: FtsA R286W (protein)
chain: MIKATDRKLVVGLEIGTAKVAALVGEVLPDGMVNIIGVGSCPSRGMDKGGVNDLESVVKCVQRAIDQAELMADCQISSVYLALSGKHISCQNEIGMVPISEEEVTQEDVENVVHTAKSVRVRDEHRVLHVIPQEYAIDYQEGIKNPVGLSGVRMQAKVHLITCHNDMAKNIVKAVERCGLKVDQLIFAGLASSYSVLTEDERELGVCVVDIGGGTMDIAVYTGGALRHTKVIPYAGNVVTSDIAYAFGTPPSDAEAIKVRHGCALGSIVGKDESVEVPSVGGRPPWSLQRQTLAEVIEPRYTELLNLVNEEILQLQEKLRQQGVKHHLAAGIVLTGGAAQIEGLAACAQRVFHTQVRIGAPLNITGLTDYAQEPYYSTAVGLLHYGKESHLNGEAEVEKRVTASVGSWIKRLNSWLRKEF
modifications: Cy3 or Cy5 at the N-terminus in the labelled form (labelled CLEPTGG peptide conjugated to the 5xGly tag by sortagging); unlabelled protein also used; left off: TwinStrep-SUMO, N-terminal, cleaved | 5x
In the case of B1, the “Off binding rate, mean” value (0.1 µM FtsA + FtsN&Z) is reported as 0.0939 s, the “Off binding rate, mean” value (0.1 µM FtsA + FtsN) is reported as 0.062 s and the “Off binding rate, mean” value (0.1 µM FtsA + FtsZ) is reported as 0.204 s. For the same molecule, the Off binding rate (0.1µM FtsA alone, Mean, n=6) was 0.3263, the “Off binding rate, mean” value (0.1 µM FtsA alone) was 0.326 s and the Off binding rate (0.1µM FtsA alone, replicate Exp.1) was 3.18E-01. The Off binding rate (0.1µM FtsA alone, replicate Exp.2) was 1.79E-01, the Off binding rate (0.1µM FtsA alone, replicate Exp.3) was 4.12E-01 and the Off binding rate (0.1µM FtsA alone, replicate Exp.4) was 4.03E-01. The Off binding rate (0.1µM FtsA alone, replicate Exp.5) was 3.20E-01, the Off binding rate (0.1µM FtsA alone, replicate Exp.6) was 3.25E-01 and the Off binding rate (0.1µM, + FtsN&Z, Mean, n=3) was 0.0939. The Off binding rate (0.1µM, + FtsN&Z, replicate Exp.1) was 1.11E-01, the Off binding rate (0.1µM, + FtsN&Z, replicate Exp.2) was 5.81E-02 and the Off binding rate (0.1µM, + FtsN&Z, replicate Exp.3) was 1.13E-01. For the same molecule, the Off binding rate (0.1µM, + FtsN, Mean, n=3) was 0.0620, the Off binding rate (0.1µM, + FtsN, replicate Exp.1) was 5.84E-02 and the Off binding rate (0.1µM, + FtsN, replicate Exp.2) was 3.36E-02. For the same molecule, the Off binding rate (0.1µM, + FtsN, replicate Exp.3) was 9.39E-02, the Off binding rate (0.1µM, + FtsZ, Mean, n=4) was 0.2040 and the Off binding rate (0.1µM, + FtsZ, replicate Exp.1) was 1.08E-01. It also gave an Off binding rate (0.1µM, + FtsZ, replicate Exp.2) of 3.38E-01, an Off binding rate (0.1µM, + FtsZ, replicate Exp.3) of 3.22E-01 and an Off binding rate (0.1µM, + FtsZ, replicate Exp.4) of 4.74E-02. For the same molecule, the “Off binding rate, mean” value (0.2 µM FtsA + FtsN&Z) was 0.099 s, the “Off binding rate, mean” value (0.2 µM FtsA + FtsN) was 0.171 s and the “Off binding rate, mean” value (0.2 µM FtsA + FtsZ) was 0.227 s. The Off binding rate (0.2µM FtsA alone, Mean, n=6) was 0.2513, the “Off binding rate, mean” value (0.2 µM FtsA alone) was 0.251 s and the Off binding rate (0.2µM FtsA alone, replicate Exp.1) was 2.65E-01. For the same molecule, the Off binding rate (0.2µM FtsA alone, replicate Exp.2) was 3.55E-01, the Off binding rate (0.2µM FtsA alone, replicate Exp.3) was 3.00E-01 and the Off binding rate (0.2µM FtsA alone, replicate Exp.4) was 1.69E-01. For the same molecule, the Off binding rate (0.2µM FtsA alone, replicate Exp.5) was 2.80E-01, the Off binding rate (0.2µM FtsA alone, replicate Exp.6) was 1.38E-01 and the Off binding rate (0.2µM, + FtsN&Z, Mean, n=6) was 0.0990. The Off binding rate (0.2µM, + FtsN&Z, replicate Exp.1) was 2.98E-02, the Off binding rate (0.2µM, + FtsN&Z, replicate Exp.2) was 2.05E-01 and the Off binding rate (0.2µM, + FtsN&Z, replicate Exp.3) was 6.45E-02. The Off binding rate (0.2µM, + FtsN&Z, replicate Exp.4) was 4.84E-02, the Off binding rate (0.2µM, + FtsN&Z, replicate Exp.5) was 1.35E-01 and the Off binding rate (0.2µM, + FtsN&Z, replicate Exp.6) was 1.11E-01. For the same molecule, the Off binding rate (0.2µM, + FtsN, Mean, n=4) was 0.1710, the Off binding rate (0.2µM, + FtsN, replicate Exp.1) was 5.13E-02 and the Off binding rate (0.2µM, + FtsN, replicate Exp.2) was 3.51E-01. The Off binding rate (0.2µM, + FtsN, replicate Exp.3) was 1.05E-01, the Off binding rate (0.2µM, + FtsN, replicate Exp.4) was 1.76E-01 and the Off binding rate (0.2µM, + FtsZ, Mean, n=6) was 0.2270. It also gave an Off binding rate (0.2µM, + FtsZ, replicate Exp.1) of 2.24E-01, an Off binding rate (0.2µM, + FtsZ, replicate Exp.2) of 4.14E-01 and an Off binding rate (0.2µM, + FtsZ, replicate Exp.3) of 9.28E-02. The Off binding rate (0.2µM, + FtsZ, replicate Exp.4) was 4.05E-01, the Off binding rate (0.2µM, + FtsZ, replicate Exp.5) was 1.38E-01 and the Off binding rate (0.2µM, + FtsZ, replicate Exp.6) was 8.76E-02. The “Off binding rate, mean” value (0.4 µM FtsA + FtsN&Z) was 0.101 s, the “Off binding rate, mean” value (0.4 µM FtsA + FtsN) was 0.18 s and the “Off binding rate, mean” value (0.4 µM FtsA + FtsZ) was 0.179 s. The Off binding rate (0.4µM FtsA alone, Mean, n=9) was 0.3738, the “Off binding rate, mean” value (0.4 µM FtsA alone) was 0.374 s and the Off binding rate (0.4µM FtsA alone, replicate Exp.1) was 7.99E-01. The Off binding rate (0.4µM FtsA alone, replicate Exp.2) was 6.65E-01, the Off binding rate (0.4µM FtsA alone, replicate Exp.3) was 6.54E-01 and the Off binding rate (0.4µM FtsA alone, replicate Exp.4) was 2.78E-01. It also gave an Off binding rate (0.4µM FtsA alone, replicate Exp.5) of 1.57E-01, an Off binding rate (0.4µM FtsA alone, replicate Exp.6) of 1.25E-01 and an Off binding rate (0.4µM FtsA alone, replicate Exp.7) of 2.26E-01. The Off binding rate (0.4µM FtsA alone, replicate Exp.8) was 2.05E-01, the Off binding rate (0.4µM FtsA alone, replicate Exp.9) was 2.55E-01 and the “membrane exchange (off-rate)” value (0.4 µM FtsA, p-value 6.73 × 10^−6) was 0.37 ± 0.24 s⁻¹. For the same molecule, the Off binding rate (0.4µM, + FtsN&Z, Mean, n=9) was 0.1008, the Off binding rate (0.4µM, + FtsN&Z, replicate Exp.1) was 3.83E-02 and the Off binding rate (0.4µM, + FtsN&Z, replicate Exp.2) was 7.71E-02. It also gave an Off binding rate (0.4µM, + FtsN&Z, replicate Exp.3) of 4.63E-02, an Off binding rate (0.4µM, + FtsN&Z, replicate Exp.4) of 2.42E-01 and an Off binding rate (0.4µM, + FtsN&Z, replicate Exp.5) of 1.75E-01. For the same molecule, the Off binding rate (0.4µM, + FtsN&Z, replicate Exp.6) was 5.12E-02, the Off binding rate (0.4µM, + FtsN&Z, replicate Exp.7) was 5.06E-02 and the Off binding rate (0.4µM, + FtsN&Z, replicate Exp.8) was 1.16E-01. The Off binding rate (0.4µM, + FtsN&Z, replicate Exp.9) was 1.11E-01, the Off binding rate (0.4µM, + FtsN, Mean, n=6) was 0.1799 and the Off binding rate (0.4µM, + FtsN, replicate Exp.1) was 1.51E-01. It also gave an Off binding rate (0.4µM, + FtsN, replicate Exp.2) of 4.77E-02, an Off binding rate (0.4µM, + FtsN, replicate Exp.3) of 2.92E-01 and an Off binding rate (0.4µM, + FtsN, replicate Exp.4) of 2.85E-01.
